The labels stand for the following.
B1: library; numbered along this chain (parent)
chain: MRKPRAAVGSGHRKQAASQEGRQKHAKNNSQAKPSACDGLARQPEEVVLQASVSSYHLFRDVAEVTAFRGSLLSWYDQEKRDLPWRRRAEDEMDLDRRAYAVWVSEVMLQQTQVATVINYYTGWMQKWPTLQDLASASLEEVNQLWAGLGYYSRGRRLQEGARKVVEELGGHMPRTAETLQQLLPGVGRYTAGAIASIAFGQATGVVDGNVARVLCRVRAIGADPSSTLVSQQLWGLAQQLVDPARPGDFNQAAMELGATVCTPQRPLCSQCPVESLCRARQRVEQEQLLASGSLSGSPDVEECAPNTGQCHLCLPPSEPWDQTLGVVNFPRKASRKPPREESSATCVLEQPGALGAQILLVQRPNSGLLAGLWEFPSVTWEPSEQLQRKALLQELQRWAGPLPATHLRHLGEVVHTFSHIKLTYQVYGLALEGQTPVTTVPPGARWLTQEEFHTAAVSTAMKKVFRVYQGQQPGTCMGSKRSQVSSPCSRKKPRMGQQVLDNFFRSHISTDAHSLNSAAQ
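Further: cells sorted at 72 h after reporter transfection.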

Variants of B1 are the subject of the data set. Put plainly: 8OG:A repair function score (normalized; synonymous = 0, nonsense = -1) (normalized log-likelihood score); higher = more repair activity (WT-like). The conditions noted are these: with 8OG:A DNA repair reporter (GFP) in HEK-293 MUTYH KO cells. The method in brief: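 After 72 h, viable mCherry+ cells were split into GFP+ (repair) and GFP− bins in three replicates per tile. These cells were MUTYH knockout HEK-293 cells holding lentiviral MUTYH cDNA NNN codon-scan libraries, kept in 10 pg/ml doxycycline and co-transfected with mCherry plus an 8OG:A GFP repair reporter. Sequencing of tile amplicons gave per-tile Rosace fitness scores, normalized into a repair function score anchored on synonymous and nonsense distributions. Synonymous medians were fixed at 0, nonsense at -1, and variants under 300 counts per million at the start were removed.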
Turning to L139S, the “8OG:A repair function score” value is -0.0783.

L139H: the “8OG:A repair function score” value stood at 0.1.

For the variant L139K, the “8OG:A repair function score” value is -0.511.

With K493F, the “8OG:A repair function score” value is -0.0124.

In the case of S54D, the “8OG:A repair function score” value was -0.029.

Take V465G: the “8OG:A repair function score” value is -0.801.

In the case of R467H, the “8OG:A repair function score” value is -0.0349.

With D82F, the “8OG:A repair function score” value is -0.22.

For the variant A391P, the “8OG:A repair function score” value is -0.305.

Take R163I: the “8OG:A repair function score” value is -0.115.

With R163Y, the “8OG:A repair function score” value is -0.137.

As to R163M, the “8OG:A repair function score” value was -0.0916.

For S459P, the “8OG:A repair function score” value is -0.197.

In the case of S459L, the “8OG:A repair function score” value is -0.866.

Regarding S459C, the “8OG:A repair function score” value was -0.291.

On to S459E, for which the “8OG:A repair function score” value was -1.11.

For S105C, the “8OG:A repair function score” value was -0.577.

For the variant H454V, the “8OG:A repair function score” value is -0.00673.

H454K: the “8OG:A repair function score” value is -0.0092.

In the case of L369Q, the “8OG:A repair function score” value was determined as 0.0329.

With L369S, the “8OG:A repair function score” value was -0.169.

Regarding N517R, the “8OG:A repair function score” value was determined as 9.97e-05.

On to N517L, for which the “8OG:A repair function score” value was -0.0164.

Turning to A135V, the “8OG:A repair function score” value was -0.0536.

As for L183C, the “8OG:A repair function score” value was -0.208.

On to L183P, for which the “8OG:A repair function score” value is -0.826.

Turning to D502P, the “8OG:A repair function score” value was -0.0101.

Regarding D512H, the “8OG:A repair function score” value is -0.0208.

For F418Q, the “8OG:A repair function score” value was -0.554.

In the case of P264F, the “8OG:A repair function score” value was -0.223.

With P264D, the “8OG:A repair function score” value is -0.274.

On to D243F, for which the “8OG:A repair function score” value was -0.786.

In the case of D243L, the “8OG:A repair function score” value was -0.818.

Turning to D243R, the “8OG:A repair function score” value was -0.99.

As for P437C, the “8OG:A repair function score” value was -0.244.

With V438A, the “8OG:A repair function score” value stood at 0.149.

For the variant K390A, the “8OG:A repair function score” value was -0.201.

For the variant L180P, the “8OG:A repair function score” value is -1.03.

V284I: the “8OG:A repair function score” value was -0.0683.

With T439D, the “8OG:A repair function score” value is -0.225.

G123S: the “8OG:A repair function score” value was 0.0793.

With S138Q, the “8OG:A repair function score” value is -0.0419.

As for P273Q, the “8OG:A repair function score” value is -0.798.

Regarding A371C, the “8OG:A repair function score” value is -0.182.

Consider V48F, for which the “8OG:A repair function score” value is -0.0263.

Consider V48M, for which the “8OG:A repair function score” value was -0.0648.

In the case of T406G, the “8OG:A repair function score” value was -0.00238.

With Q472S, the “8OG:A repair function score” value is 0.0274.

Regarding Q472V, the “8OG:A repair function score” value came to 0.00907.

A196N: the “8OG:A repair function score” value was -0.697.

Regarding A461H, the “8OG:A repair function score” value was -0.545.

In the case of S507K, the “8OG:A repair function score” value is -0.0064.

With S507L, the “8OG:A repair function score” value is -0.0301.

With F68L, the “8OG:A repair function score” value is -0.141.

Q323S: the “8OG:A repair function score” value was -0.0829.

Take Q323V: the “8OG:A repair function score” value was -0.00203.

For the variant A51R, the “8OG:A repair function score” value came to 0.00957.

In the case of A51M, the “8OG:A repair function score” value was -0.607.

Consider S226T, for which the “8OG:A repair function score” value is -0.0677.

As to R156G, the “8OG:A repair function score” value is -0.287.

Regarding R156T, the “8OG:A repair function score” value is -0.238.

Consider M462E, for which the “8OG:A repair function score” value is -0.603.

On to A357D, for which the “8OG:A repair function score” value is -0.193.

Consider W75N, for which the “8OG:A repair function score” value was -2.91.

As to W75R, the “8OG:A repair function score” value is -1.13.

In the case of P442A, the “8OG:A repair function score” value was -0.19.

In the case of L169P, the “8OG:A repair function score” value was -0.645.

As to L169G, the “8OG:A repair function score” value is -0.273.

As to Q450W, the “8OG:A repair function score” value is -0.011.

A36W: the “8OG:A repair function score” value is -0.0681.

As for T455F, the “8OG:A repair function score” value was -0.273.

With R87P, the “8OG:A repair function score” value was -0.0432.

Consider R389Q, for which the “8OG:A repair function score” value is -0.613.

R389K: the “8OG:A repair function score” value is -0.274.

Turning to R389Y, the “8OG:A repair function score” value is -0.0127.

Regarding G236T, the “8OG:A repair function score” value was -0.0456.

With P244A, the “8OG:A repair function score” value is -0.238.

With Q499C, the “8OG:A repair function score” value was 0.00111.

For the variant Q499M, the “8OG:A repair function score” value was 0.00183.

Regarding C314A, the “8OG:A repair function score” value was -0.468.

Consider C314G, for which the “8OG:A repair function score” value was -0.468.

As to A238W, the “8OG:A repair function score” value was -0.956.

With A238S, the “8OG:A repair function score” value is -0.0308.

For Y100Q, the “8OG:A repair function score” value is -1.23.
